Consider one molecule from patent EP2045266A1 (INSERM (Institut National de la Santé et de la Recherche …, dated 2009).

The assay concerns the target T1, LexA DNA-binding domain fusion of 4 kDa pro-fragment of human cath-D (human, UniProt P0A7C2 1-202; P07339 21-64, limits assumed).
T1 construct: also called 4 kDa pro-fragment (yeast two-hybrid bait)
T1 sequence (looked up): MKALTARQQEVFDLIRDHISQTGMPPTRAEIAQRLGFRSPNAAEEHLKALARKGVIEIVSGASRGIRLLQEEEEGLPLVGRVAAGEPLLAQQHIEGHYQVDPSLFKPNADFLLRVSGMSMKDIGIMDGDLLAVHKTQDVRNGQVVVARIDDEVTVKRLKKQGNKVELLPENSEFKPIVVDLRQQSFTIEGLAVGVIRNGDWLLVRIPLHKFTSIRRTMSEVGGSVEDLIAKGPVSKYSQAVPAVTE
Nature of the assay: yeast two-hybrid.

B1: B42 activation domain fusion of LRP1β (307-479) (yeast two-hybrid clone, pYESTrp2-LRP1β (307-479)) (other, not shown: large carriers)
chain: PSGMPTCRCPTGFTGPKCTQQVCAGYCANNSTCTVNQGNQPQCRCLPGFLGDRCQYRQCSGYCENFGTCQMAADGSRQCRCTAYFEGSRCEVNKCSRCLEGACVVNKQSGDVTCNCTDGRVAPSCLTCVGHCSNGGSCTMNSKMMPECQCPPHMTGPRCEEHVFSQQQPGHIA
notes: also called the clone isolated in the screen
B1: the binding result is given as “no binding”.
